Reference: patent publication EP4810515A1 (Shanghai Haiju Biological Technology Co., Ltd., dated 2026)
Numbering of substitutions follows the chain as printed. Values belong to the binder of their own block, whether it stands above or below them.

Tests used:
[1] = target: T1, human GDF15 recombinant protein (ACRO, GD5-H5149) (human, UniProt Q99988 197-308); experiment: cell-based or functional assay
T1 sequence (looked up): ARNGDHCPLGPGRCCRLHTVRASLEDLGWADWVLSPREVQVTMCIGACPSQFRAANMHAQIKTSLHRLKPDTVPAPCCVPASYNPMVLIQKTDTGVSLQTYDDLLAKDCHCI

[2] = target: T1, human GDF15 recombinant protein (ACRO, …); experiment: ELISA, coated hGDF-15.His
[3] = target: T2, cynomolgus monkey GDF15 recombinant protein (Kactus, GDF-CM215) (cynomolgus monkey, UniProt G7PWZ3 197-308, limits assumed); experiment: ELISA, coated cynoGDF-15.hFc
T2 construct: also called cynoGDF-15.hFc; cynoGDF15; not shown: human Fc (hFc)
T2 sequence (looked up): T1 sequence (looked up) with H6R, R21H, A54E, T63M, S64N, I112V

[4] = target: T3, mouse GDF15 recombinant protein (Kactus, GDF-MM215) (mouse, UniProt Q9Z0J7 189-303, limits assumed); experiment: ELISA, coated mGDF-15.hFc 2 ug/mL
T3 construct: also called mGDF-15.hFc; murine GDF15; not shown: human Fc (hFc)
T3 sequence (looked up): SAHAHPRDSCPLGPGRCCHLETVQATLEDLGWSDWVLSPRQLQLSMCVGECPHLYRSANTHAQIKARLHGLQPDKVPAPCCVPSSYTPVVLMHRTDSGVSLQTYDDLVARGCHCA

[5] = target: T1, human GDF15 recombinant protein (ACRO, …); experiment: cell-based or functional assay; remark: listed apart in the source
[6] = target: T3, mouse GDF15 recombinant protein …; experiment: ELISA, coated mGDF-15.hFc

B1: G2-CH2-LP1-hIgG1 (LALAGA, -K) (antibody, V domains shown)
VH: QVTLKESGPGILQPSQTLSLTCSFSGFSLTISGMGVSWIRQPSGKGLEWLAHIYWDDDKRYNPSLKSRLTISKDTSSNQVFLEITSVDTADTATYYCVRAGWDFFDYWGQGTTLTVSS
VL: DIVMTQSQKFMSTSVGDRVSVTCKASQNVGTNVAWYQQKPGQSPKGLIYSASYRYSGVPDRFTGSGSGTDFTLTISNVQSEDLAEYFCQQYNAYPWTFGGGTKLEIKR
IC50, reporter gene cell strain (mGFRAL) [1]: 0.088 µg/mL

B2: G2-CH2-LP2-hIgG1 (LALAGA, -K) (antibody, V domains shown)
VH: B1 VH
VL: B1 VL with N92E, A93S
IC50, reporter gene cell strain (mGFRAL) [1]: 0.091 µg/mL

B4: G2-CH2-LP3-hIgG1 (LALAGA, -K) (antibody, V domains shown)
VH: B1 VH
VL: B1 VL with A93Q
IC50, reporter gene cell strain (mGFRAL) [1]: 0.093 µg/mL

B5: G2-CH8-LP1-hIgG1 (LALAGA, -K) (antibody, V domains shown)
VH: QVTLKESGPGILQPSQTLSLTCSFSGFSLSTYGIGVGWIRQPSGKGLEWLAHIWWNDNKYYNTALKSRLTISKDTSNNQVFLKIASVDTADTATYYCARLAYDYVDSWGQGTTLTVSS
VL: DIVMTQAAFSNPVTLGTSASISCRSSKSLLHSNAITYLYWYLQKPGQSPQLLIYQMSNLVSGVPDRFSSSGSGTDFTLRISRVEAEDVGVYYCAQNLELPPTFGAGTKLELKR
IC50, reporter gene cell strain (mGFRAL) [1]: 0.116 µg/mL

B7: G2-CH8 (antibody, human IgG1, kappa, V domains shown)
VH: B5 VH
VL: B5 VL with A34G
notes: chimeric: murine variable regions on human IgG1 constant region mutant (LALAGA, -K)
IC50, luciferase reporter gene cell strain (mGFRAL/RET HEK293) with hGDF15 [5]: 3.05 nM | EC50 [2]: 0.00122 nM | EC50 [6]: 0.37 nM | EC50 [3]: 0.0934 nM

B10: G2-CH5-HP1-hIgG1 (LALAGA, -K) (antibody, V domains shown)
VH: EVLLQQSGPELVKPGASVKIACKASGYTLTDYNLNWVKQSHGKSLEWIGDLNPYNAGIIYNQKFKGKATLTVDKSSSTAYMELRSLTSEDIAVYYCAREGRGGAWFDSWGQGTLVTVSA
VL: DIQMTQSSSSFSVSLGDRVTITCKASEDIYHRLAWYQQKPGNAPRLLISGATSLETGIPSRFSGSGSGKDYALSITSLQTEDVGTYYCQQYWSPPFTFGSGTKLEIKR
IC50, reporter gene cell strain (mGFRAL) [1]: 0.18 µg/mL

B11: G2-CH5-HP2-hIgG1 (LALAGA, -K) (antibody, V domains shown)
VH: B10 VH with A56Q
VL: B10 VL
IC50, reporter gene cell strain (mGFRAL) [1]: 0.142 µg/mL

B12: G2-CH6 (antibody, human IgG1, kappa, V domains shown)
VH: EVQLRQSGPELVKPGTSMKISCKASAYSFTDYNMNWVKQSHGKNLEWIGLINPYNGGTRYNQNFKGKATITVDRSSTTAYMELLSLTSEDSAIYYCAREVRLGNALDYWGQGTSVTVSS
VL: DIQMTQSPASLSVSVGETVTITCRPSESIYSNLAWYQQKQGKSPQLLVYAATNLADGVPSRFSGSGSGTQYSLKINSLQSEDFGTYYCQHFWGIPWTFGGGTKLEIKR
notes: as for B7
IC50, luciferase reporter gene cell strain (mGFRAL/RET HEK293) with hGDF15 [5]: 4.39 nM | EC50 [2]: 0.00434 nM | EC50 [6]: 0.11 nM | EC50 [3]: 0.0892 nM

B14: G2-CH7 (antibody, human IgG1, kappa, V domains shown)
VH: EVQLQQSGPELVKPGASLKISCKASGYSFTGYNMNWVKQSHGKNLEWIGLINPSNGGSSYSQKFKGKATLTVDKSSSTAYMELLSLTSKDSAVYYCAREVRLGNALDYWGQGTSVTVSS
VL: B12 VL with P25A, S28N, A55G, V58A, T85S, I94T
notes: as for B7
IC50, luciferase reporter gene cell strain (mGFRAL/RET HEK293) with hGDF15 [5]: 3.83 nM | EC50 [2]: 0.00552 nM | EC50 [6]: 0.12 nM | EC50 [3]: 0.104 nM

Continued, values first:

EC50 [2]: 0.00393 nM | EC50 [3]: 0.13 nM | binding result [4]: no binding
B3: G2-CH17 (antibody, human IgG1, kappa, V domains shown)
VH: B1 VH with T30N, I31T, S77R, E83K, S86G, T94A, V98A, A100T, Y107I
VL: B1 VL with T31S, G46A, S76T, N92K, A93S, W96L, G100A, I106L
notes: as for B7

IC50, reporter gene cell strain (mGFRAL) [1]: 0.1 µg/mL
B6: G2-CH8-LP2-hIgG1 (LALAGA, -K) (antibody, V domains shown)
VH: B5 VH
VL: B5 VL with A34Q

IC50, reporter gene cell strain (mGFRAL) [1]: 0.081 µg/mL
B8: G2-CH8-LP3-hIgG1 (LALAGA, -K) (antibody, V domains shown)
VH: B5 VH
VL: B5 VL with N33E, A34G

IC50, luciferase reporter gene cell strain (mGFRAL/RET HEK293) with hGDF15 [5]: 3.4 nM | EC50 [2]: 0.00592 nM | EC50 [6]: 0.25 nM | EC50 [3]: 0.0841 nM
B9: G2-CH10 (antibody, human IgG1, kappa, V domains shown)
VH: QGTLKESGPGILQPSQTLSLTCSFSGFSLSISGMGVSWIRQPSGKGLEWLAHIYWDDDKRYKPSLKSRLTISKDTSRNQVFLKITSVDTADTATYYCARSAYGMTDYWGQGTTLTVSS
VL: DIQMTQTTSSLSASLGDRVTISCRASQDISNYLNWYQQKPDGTVKLLIHSASNLHSGVPSRFSGSGSGTDYSLTISNLEQEDIATYFCQQYNMFPWTFGGGTKLEIKR
notes: as for B7

IC50, luciferase reporter gene cell strain (mGFRAL/RET HEK293) with hGDF15 [5]: 1.42 nM | EC50 [2]: 0.00634 nM | EC50 [6]: 0.11 nM | EC50 [3]: 0.097 nM
B13: G2-CH9 (antibody, human IgG1, kappa, V domains shown)
VH: B14 VH with L18M, H41Q, S54Y, S58T, S59I, S61N, S77T, K89E, L106M
VL: B12 VL with P25A, S28N, Y49S, N76I, E81V, T85S, I94T
notes: as for B7
